Results from the Immune Epitope Database (IEDB).

How the values were obtained:
Test in all cases: IEDB peptide-MHC binding, purified MHC/competitive/radioactivity; filed as Kd, often an IC50 or EC50 that approximates it; ≥ and ≤ were set here for values at or beyond the usual limits of such assays
HLA-A*31:01 = biological target: HLA-A*31:01
HLA-A*11:01 = biological target: HLA-A*11:01
HLA-A*33:01 = biological target: HLA-A*33:01
HLA-A*03:01 = biological target: HLA-A*03:01
HLA-A*68:01 = biological target: HLA-A*68:01
HLA-A*02:03 = details: source organism: Dengue virus 4 Philippines/H241/1956
[1] = source organism: Vaccinia virus WR
[2] = source organism: SARS coronavirus Tor2
[3] = source organism: Mammarenavirus whitewaterense
[4] = source organism: Mammarenavirus machupoense
[5] = source organism: Lassa virus Josiah
[6] = source organism: Mammarenavirus juninense
[7] = source organism: Vaccinia virus

Sequence | Kd (HLA-A*31:01; [1]) [nM] | Kd (HLA-A*11:01; [1]) [nM] | Kd (HLA-A*33:01; [1]) [nM] | Kd (HLA-A*03:01; [1]) [nM] | Kd (HLA-A*68:01; [1]) [nM] | other results
QMAGVEVRY | ≥ 31200 | 2270 | ≥ 20200 | 49.6 | 7430 | 
RIDGAHLTK |  |  |  |  |  | Kd (HLA-A*31:01; [2]): 1820 nM; Kd (HLA-A*11:01; [2]): 11.9 nM; Kd (HLA-A*33:01; [2]): ≥ 77700 nM; Kd (HLA-A*03:01; [2]): 26.7 nM; Kd (HLA-A*68:01; [2]): ≥ 25700 nM
RLASMAICSA |  |  |  |  |  | Kd (HLA-A*02:03): 24.5 nM
RQFHQKLLK |  |  |  |  |  | Kd (HLA-A*31:01; [2]): 8.5 nM; Kd (HLA-A*11:01; [2]): 13.3 nM; Kd (HLA-A*33:01; [2]): ≥ 77700 nM; Kd (HLA-A*03:01; [2]): 12.6 nM; Kd (HLA-A*68:01; [2]): ≥ 39500 nM
RSSPPIPMSR | 1.12 | 1.49 | 1600 | 8.73 | 245 | 
SAGAGVLDK | ≥ 26600 | 316 | ≥ 77700 | 243 | 3350 | 
SFKDQSKYCH |  |  |  |  |  | Kd (HLA-A*31:01; [3]): 1160 nM; Kd (HLA-A*11:01; [3]): ≥ 69700 nM; Kd (HLA-A*33:01; [3]): 8630 nM; Kd (HLA-A*03:01; [3]): ≥ 70000 nM; Kd (HLA-A*68:01; [3]): ≥ 70100 nM
SFYVYANGGR |  |  |  |  |  | Kd (HLA-A*31:01; [2]): 89.2 nM; Kd (HLA-A*11:01; [2]): 1170 nM; Kd (HLA-A*33:01; [2]): 182 nM; Kd (HLA-A*03:01; [2]): 1650 nM; Kd (HLA-A*68:01; [2]): 789 nM
SLYMAISPK |  |  |  |  |  | Kd (HLA-A*31:01; [2]): 1010 nM; Kd (HLA-A*11:01; [2]): 21.9 nM; Kd (HLA-A*33:01; [2]): ≥ 49500 nM; Kd (HLA-A*03:01; [2]): 13.6 nM; Kd (HLA-A*68:01; [2]): 2190 nM
SMRYQSLIPR | 0.363 | 1.01 | 0.614 | 1.35 | 20.2 | 
SSVSVLMKEH |  |  |  |  |  | Kd (HLA-A*31:01; [4]): 11700 nM; Kd (HLA-A*11:01; [4]): ≥ 31000 nM; Kd (HLA-A*33:01; [4]): ≥ 70000 nM; Kd (HLA-A*03:01; [4]): 17700 nM; Kd (HLA-A*68:01; [4]): 8860 nM
SVVQKPVDVK |  |  |  |  |  | Kd (HLA-A*31:01; [2]): 7980 nM; Kd (HLA-A*11:01; [2]): 53.7 nM; Kd (HLA-A*33:01; [2]): ≥ 67100 nM; Kd (HLA-A*03:01; [2]): 61.6 nM; Kd (HLA-A*68:01; [2]): 857 nM
TIANSNIIK | 8980 | 36.8 | 10900 | 655 | 73.1 | 
TLATGPVLTL |  |  |  |  |  | Kd (HLA-A*02:03): 28.3 nM
TLLPLTQYNR |  |  |  |  |  | Kd (HLA-A*31:01; [2]): 1340 nM; Kd (HLA-A*11:01; [2]): 8140 nM; Kd (HLA-A*33:01; [2]): 4590 nM; Kd (HLA-A*03:01; [2]): 7220 nM; Kd (HLA-A*68:01; [2]): 3410 nM
TSCSKNEAEK | 5740 | 165 | ≥ 70000 | 3800 | 385 | 
TSSTCMMCYK |  |  |  |  |  | Kd (HLA-A*31:01; [2]): 85.1 nM; Kd (HLA-A*11:01; [2]): 1.17 nM; Kd (HLA-A*33:01; [2]): 441 nM; Kd (HLA-A*03:01; [2]): 22.9 nM; Kd (HLA-A*68:01; [2]): 4.93 nM

Sequence | Kd (HLA-A*31:01; [1]) [nM] | Kd (HLA-A*11:01; [1]) [nM] | Kd (HLA-A*33:01; [1]) [nM] | Kd (HLA-A*03:01; [1]) [nM] | Kd (HLA-A*68:01; [1]) [nM] | other results
TTGRTSLPK |  |  |  |  |  | Kd (HLA-A*31:01; [5]): 18000 nM; Kd (HLA-A*11:01; [5]): 1760 nM; Kd (HLA-A*33:01; [5]): 14500 nM; Kd (HLA-A*03:01; [5]): 5240 nM; Kd (HLA-A*68:01; [5]): 13300 nM
TVHKLTQDEK | ≥ 70000 | 80.5 | ≥ 70000 | 12300 | 220 | 
TVVRDFENY | ≥ 77900 | 1210 | ≥ 77700 | ≥ 63000 | 1100 | 
VALYRRIQRR | 562 | ≥ 48200 | 1340 | ≥ 70100 | ≥ 30500 | 
VFFTASLFLH |  |  |  |  |  | Kd (HLA-A*31:01; [6]): 318 nM; Kd (HLA-A*11:01; [6]): 10100 nM; Kd (HLA-A*33:01; [6]): 164 nM; Kd (HLA-A*03:01; [6]): 10400 nM; Kd (HLA-A*68:01; [6]): ≥ 22700 nM
VIDKAKVMGR | 130 | 488 | 2650 | 805 | 334 | 
VMNIERQDY | 3880 | 6110 | 747 | ≥ 61100 | 53.2 | 
VTSSGTIYK |  |  |  |  |  | Kd (HLA-A*31:01; [7]): 0.577 nM; Kd (HLA-A*11:01; [7]): 0.595 nM; Kd (HLA-A*33:01; [7]): 10.2 nM; Kd (HLA-A*03:01; [7]): 8.08 nM; Kd (HLA-A*68:01; [7]): 16.8 nM
VTTKDYFSFK | 561 | 11 | 7280 | 26.1 | 155 | 
VVYRAFDIY |  |  |  |  |  | Kd (HLA-A*31:01; [2]): 7860 nM; Kd (HLA-A*11:01; [2]): 149 nM; Kd (HLA-A*33:01; [2]): ≥ 25100 nM; Kd (HLA-A*03:01; [2]): 163 nM; Kd (HLA-A*68:01; [2]): 3340 nM
YALINLVQYR | 570 | 6860 | 1270 | 11700 | 21.8 | 
YIAVANCVR | 14.2 | 13900 | 284 | ≥ 78000 | 6.73 | 
YIYSEIKQGR | 16.5 | 11600 | 853 | 1650 | 6.39 | 
YLSDSDNIK | ≥ 77900 | 8570 | ≥ 50700 | 2600 | 1120 | 
YSGLTPEQK | 16200 | 497 | ≥ 53000 | 18800 | 494 | 
YTYDRVDIYY | 11000 | 2.41 | 1170 | 97.4 | 0.96 | 
